{"source": "patent US7144731B2", "about": "“SCF antibody compositions and methods of using the same” (Amgen Inc., priority 1989, dated 2006)", "molecules": {"B1": {"name": "G-CSF: human granulocyte colony-stimulating factor (protein, UniProt P09919 31-207, looked up)", "Granulocyte …": "TPLGPASSLPQSFLLKCLEQVRKIQGDGAALQEKLVSECATYKLCHPEELVLLGHSLGIPWAPLSSCPSQALQLAGCLSQLHSGLFLYQGLLQALEGISPELGPTLDTLQLDVADFATTIWQQMEELGMAPALQPTQGAMPAFASAFQRRAGGVLVASHLQSFLEVSYRVLRHLAQP"}}, "key": {"[1]": {"system": "bone marrow from patients with DBA", "assay": "BFU-E culture of Diamond-Blackfan anemia marrow", "assay_type": "cell-based, human", "from_the_text": "(§1) Another bone marrow failure disorder which is responsive to SCF is Diamond-Blackfan anemia (DBA) or congenital pure red cell aplasia. This congenital abnormality results in a selective defect in the production of red blood cells and often results in chronic transfusion dependency. […] This pattern of response reflects an intrinsic defect in the receptor for SCF (c-kit) on the progenitor cell. In either case (abnormal production of SCF by the microenvironment or decreased stimulation of the hematopoietic progenitor by SCF) SCF overcomes the block to hematopoiesis which characterizes bone marrow failure syndromes such as DBA."}, "control marrow": {"system": "control marrow", "assay": "BFU-E culture of control marrow", "assay_type": "cell-based, human", "details": "with EPO", "from_the_text": "as §1"}, "[2]": {"system": "peripheral blood mononuclear cells of normal donors", "assay": "BFU-E assay, peripheral blood of normal donors", "assay_type": "cell-based", "details": "Homo sapiens, PBMC; in the presence of the three concentrations of HuSCF (10, 100, 1000 ng/ml); read-out: IC50 (fifty percent inhibitory concentration) of zidovudine for BFU-E", "protocol": "Peripheral blood mononuclear cells were isolated from leukopaks and peripheral blood using ficoll-hypaque sedimentation followed by extensive washing with Hank's Balance Salt Solution (HBSS). Blood cells were enumerated and viability ascertained by trypan blue dye exclusion.\nAssays for BFU-E were performed in a standard protocol using normal human bone marrow as the control. Heparinized blood was diluted with an equal volume of HBSS (GIBCO, Grand Island, N.Y.), layered over Ficol-Paque (Pharmacia, Piscataway, N.J.) and centrifuged at 400 g for 30 minutes at room temperature. Light density cells (s.g. <1.077) were collected and washed twice in HBSS. Cells were resuspended in Iscove's Medium with 10% Fetal Bovine Serum (GIBCO, Grand Island, N.Y.) at a concentration of 1×10^7/ml. […] Erythroid burst colonies were scored after 14 days of culture in a humidified atmosphere containing 5% CO2. Each assay was done in duplicate and colonies with >50 cells present on day 14 with hemoglobinization were scored as BFU-E.\nThe 50% inhibitory concentration for zidovudine was calculated by expressing the mean of four determinations of BFU-E for each level of zidovudine and huSCF as a percentage of control (no added zidovudine). […] The 50% inhibitory concentration was calculated by interpolation and the value used as the exponent for the base of 10. […]"}, "UT-7 cells": {"system": "UT-7 cells", "assay": "UT-7 ^3H-thymidine uptake assay", "assay_type": "cell-based, human", "details": "E. coli derived", "protocol": "UT-7 cells are a human megakaryocyte, huGM-CSF responsive cell line obtained from John Adamson, New York Blood Center, New York, N.Y. UT-7 cells were cultured in Iscove's Modified Dulbecco's Medium, 10% FBS, 1× glutamine, 5 \\g/ml huGM-CSF. Cells are passaged twice a week at 1×10^5 cells/ml.\nCells were washed twice in phosphate buffered saline (PBS) and resuspended in RPMI medium with 4% FBS and glutamine penicillin streptomycin (GPS) (Irvine Scientific Cat No. 9316 used at 1% volume per volume) at 4×10^4 cells/ml before use. Human SCF along with specific samples were added to 4000 cells/well in 96 well plates and were cultured for 72 hrs. 0.5 uCi/well of ^3H-Thymidine was then added to each plate, plates were harvested and counted 4 hours later."}, "[3]": {"target": "T1, SCF receptor (OCIM1 plasma membrane) (Homo sapiens, UniProt P10721)", "T1 construct": "endogenous in cells; host or cells: OCIM1 human erythroleukemic cells, plasma membrane preparation", "assay": "SCF radioreceptor assay", "assay_type": "binding", "details": "E. coli derived", "protocol": "OCIM1 cells, [Papayannopoulou et al., Blood 72:1029–1038 (1988)] are a human erythroleukemic cell line expressing many human SCF receptors per cell. These cells are grown in Iscove's Modified Dulbecco's Medium, 10% FBS, and 1× glutamine and passaged 3 times a week to 1×10^5 cells/ml.\nPreparation of the OCIM1 plasma membrane is as follows with all steps performed on ice.\nFirst, 40 T175 flasks of cells were grown-up in OCIM1 culture medium, for a total of 1.9×10^9 […]. The conditioned medium and 1 mM Phenyl Methyl Sulfonyl Fluoride (PMSF) protease inhibitor, was spun down in 8×250 ml tubes at 1000 rpm for 10 minutes at 4° C. Cells were washed with PBS and repelleted in 4×50 ml centrifuge tubes at 1000 rpm for 10 minutes at 4° C. Cells were resuspended in 20 ml ice cold PBS with glucose sodium pyruvate (Gibco Cat #310-4287). The 20 ml cell solution was put into a pre-pressurized, pre-chilled (4° C.) “cell bomb” designed to lyse the cells. Cells were pressurized at 400–650 PSI for 10 minutes to establish equilibrium. When the pressure is released cell lysis occurs.\nAt this point the cells were checked for the percentage of cell lysis. 90% lysis was common. The cell suspension was resuspended in 80 mls sucrose buffer (0.25M sucrose, 10 mM Tris, 1 mM EDTA in double distilled (dd) H2O, filtered through a 0.45 u filter, pH 7.0) and divided between two 40 ml screwcap tubes. Tubes were spun at 5900 RPM for 10 minutes in a Beckman J2-21 centrifuge, JA-20 rotor at 4° C. The supernatants were saved and spun one more time as above to further remove any unwanted material. Supernatants were saved and distributed equally into 2 nalgene 40 ml centrifuge tubes. These supernatants were centrifuged at 16,000 RPM 4° C. for 30 min. in J2-21 centrifuge, JA-20 rotor. These supernatants were discarded being careful to save pellets. Each pellet was resuspended in sucrose buffer so there were 20 mls per tube in 4×36 ml plastic ultracentrifuge tubes. Using a 20 ml syringe and a large trochar, the solution was carefully underlayered in each tube with ice cold 36% sucrose solution (36.1 g sucrose/100 mls ddH2O), bringing the level of the liquid to within 2 mm of the top of the tube. Without disturbing the interface, each tube was carefully placed into each of […] titanium ultracentrifuge tubes. Tubes were centrifuged at 27,000 RPM, 4° C. for 75 minutes in an ultracentrifuge. These tubes were carefully removed from the rotor and from titanium buckets, placed in a rack with the 36% sucrose interface visible. The membraneous material at the interface was collected with a pasteur pipet and transfered into 2 clean nalgene 40 ml centrifuge tubes. Volume was brought up to 40 mls with ice cold sucrose buffer. Tubes were balanced and centrifuged as before at 5900 RPM in J2-21 centrifuge. […]"}, "normal baboons": {"system": "normal baboons", "assay": "In vivo activity in normal primates"}, "normal human bone marrow": {"system": "normal human bone marrow", "assay": "Human CFU-GM assay", "assay_type": "cell-based", "details": "average of triplicate cultures; SCF = COS-1 supernatant 4 days after transfection"}, "human bone marrow": {"system": "human bone marrow", "assay": "Human bone marrow colony assay", "assay_type": "cell-based", "details": "agar colony assay, factors alone or combined", "protocol": "The cDNA of human SCF corresponding to amino acids 1–162 obtained by PCR reactions outlined in Example 3D, was expressed in COS-1 cells as described for the rat SCF in Example 4. COS-1 supernatants were assayed on human bone marrow as well as in the murine HPP-CFC and MC/9 assays. […] The culture conditions of the assay were as follows: human bone marrow from healthy volunteers was centrifuged over Ficoll-Hypaque gradients (Pharmacia) and cultured in 2.1% methyl cellulose, 30% fetal calf serum, 6×10^−5 M 2-mercaptoethanol, 2 mM glutamine, ISCOVE'S medium (GIBCO), 20 U/ml EPO, and 1×10^5 cells/ml for 14 days in a humidified atmosphere containing 7% O2, 10% CO2, and 83% N2. Only those colonies of 0.2 mm in size or larger are indicated.\nRecombinant human SCF was tested in agar colony assays on human bone marrow in combination with other growth factors as described above."}, "Lewis rats": {"system": "Lewis rats", "assay": "SCF and G-CSF in Lewis rats", "assay_type": "in vivo, rat", "protocol": "Quantitative peripheral blood and bone marrow differentials were performed at various timepoints as previously described [Hulse, Acta Haematol. […] J. Physiol. […] Histologic examination of the spleen was performed with Bouin's-fixed paraffin-embedded sections stained with hematoxylin-and-eosin as well as by the Giemsa method. The numbers of normoblasts, megakaryocytes, and mast cells per 400× or 1000× high power field (HPF) in the spleen was quantitated by counting the number of each cell type in randomly selected fields of the red pulp. Increases in circulating numbers of neutrophils over extended time periods were when so stated calculated by planimetry as previously described. […] Data is expressed as the mean plus-or-minus one standard deviation and statistical analysis is by the unpaired t-test."}, "[4]": {"system": "dog with cyclic neutropenia", "assay": "Canine cyclic neutropenia", "assay_type": "in vivo", "details": "rcanineSCF 100 mg/kg/day s.c. over several weeks", "protocol": "Cyclic neutropenia, in particular, is a defect in the regulation of stem cell division since other lineages (e.g., platelet, erythrocyte and monocyte) are also effected. […] A typical dog with cyclic neutropenia was treated with rcanineSCF (recombinant canine SCF) at […] subcutaneously over several weeks. […] Thus, SCF is useful in treating a variety of bone marrow failure syndromes, either alone or in combination with other hematopoietic growth factors."}, "[5]": {"details": "6 hours after a single injection"}}}
{"molecule": "SCF: stem cell factor added to DBA and control marrow cultures; form not specified", "values": [{"measurement": "increase in the frequency of BFU-E", "setting": "[1]; majority of patients, ≤10 ng/ml SCF, with EPO", "value": "approximately 3 fold"}, {"measurement": "SCF concentration giving an increase in the frequency of BFU-E", "setting": "[1]; other group of patients with DBA", "value": "greater than or equal to 50 ng/ml"}, {"measurement": "increase in frequency of BFU-E", "setting": "control marrow", "value": 1.5, "unit": "fold"}]}
{"molecule": "Cc1cn([C@H]2C[C@H](N=[N+]=[N-])[C@@H](CO)O2)c(=O)[nH]c1=O", "note": "[zidovudine]", "values": [{"measurement": "IC50", "setting": "[2]", "value": "2.65 to 1380", "unit": "µM"}]}
{"molecule": "Human SCF^1-165: recombinant human [Met^−1]SCF^1-165 expressed in E. coli", "values": [{"measurement": "stimulation of UT-7 proliferation, comparison", "setting": "UT-7 cells", "value": "equally active"}, {"measurement": "competition with binding of human [^125I][Met^−1]SCF^1-164", "setting": "[3]", "value": "compete equally well"}, {"measurement": "in vivo biological activity in primates compared with human SCF^1-164", "setting": "normal baboons", "value": "same in vivo biological activity"}]}
{"molecule": "B1", "values": [{"measurement": "Colony #/100,000 cells (±SEM)", "setting": "normal human bone marrow", "value": "24 ± 1"}, {"measurement": "Colony #/10^5 cells (14 Days)", "setting": "human bone marrow", "value": "32 ± 3"}, {"measurement": "time of peak neutrophilia after a single injection", "setting": "Lewis rats; 25 ug/rat i.v.", "value": 12, "unit": "h"}, {"measurement": "decrease in mature marrow neutrophils vs carrier control", "setting": "Lewis rats; [5]", "value": 44, "unit": "%"}, {"measurement": "mature marrow neutrophils", "setting": "Lewis rats; [5]", "value": "5.55±0.5 ×10^6 PMN/humerus"}, {"measurement": "myeloblasts and promyelocytes in marrow vs carrier controls", "setting": "Lewis rats; 6 hours after single injection", "value": "significant increase in myeloblasts and promyelocytes"}, {"measurement": "mature neutrophils in bone marrow", "setting": "Lewis rats; 24 hours after daily injection for one week", "value": "28.5±2.1 ×10^6 PMN/humerus"}, {"measurement": "circulating neutrophils", "setting": "Lewis rats; daily 25 ug/rat for one week, 24 hours after the last injection", "value": "10.6±3.6 ×10^3 PMN/mm^3"}, {"measurement": "morbidity and thrombocytopenia", "setting": "Lewis rats; daily for one week", "value": "None of the rats"}, {"measurement": "circulating neutrophils", "setting": "Lewis rats; daily for one week, 12 hours after the last (seventh) injection", "value": "25.3±0.3 ×10^3 PMN/mm^3"}, {"measurement": "number of megakaryocytes in the spleen", "setting": "Lewis rats; per 400× HPF, daily for one week", "value": "2.0±1.1"}, {"measurement": "number of normoblasts in the spleen", "setting": "Lewis rats; per 1,000× HPF, daily for one week", "value": "0±0"}, {"measurement": "neutrophil cycling", "setting": "[4]", "value": "increases the frequency and amplitude of neutrophil cycling, but does not eliminate it"}]}
